Data on three substances can be found in article PMC5893644.

In assay [1] the target is BrYV P3a^P18L, 3xFlag- and GFP-tagged copies (Brassica yellows virus (BrYV-A)). Kind of assay: SDS-PAGE and western blot (dimer band under denaturing conditions); total protein of agroinfiltrated N. benthamiana leaves in 2x SDS-PAGE buffer, 100 °C 10 min, 12.5% SDS-PAGE; antisera to GFP or RFP.
In assay [2] the target is His.MBP-P3a^P18L fusion protein (Brassica yellows virus (BrYV-A)). In words: SDS-PAGE and western blot (dimer band under denaturing conditions); E. coli Rosetta (DE3) induced with 0.1 mM IPTG at 18 °C for 20 h; 12.5% SDS-PAGE; anti-MBP monoclonal antibody.
Assay [3] has as its target P3a^P18L-RFP (Brassica yellows virus (BrYV-A)). In words: SDS-PAGE and western blot (dimer band under denaturing conditions); total protein of agroinfiltrated N. benthamiana leaves in 2x SDS-PAGE buffer, 100 °C 10 min, 12.5% SDS-PAGE; antisera to GFP or RFP. In general terms: In western blotting, separated proteins are transferred to a membrane and probed.

What is called stoichiometry N is a count of units in the complex or per binding partner. In assay [1], “BrYV P3a^P18L, 3xFlag- and GFP-tagged copies (from UniProt A0A897TIH8 1-45) (natural protein)” had a stoichiometry N of 2.
Consider “His.MBP-P3a^P18L fusion protein (from UniProt A0A897TIH8 1-45) (natural protein)”, for which the stoichiometry N in assay [2] was found to be 2.
For the substance “P3a^P18L-RFP (from UniProt A0A897TIH8 1-45) (natural protein)”, the stoichiometry N in assay [3] amounted to 2.
